Earlier results on 1 substance are cited in article PMC3245798.

For this data set, the target named is SLAM (Homo sapiens) (UniProt Q13291). The following applies: cited from earlier work.
Chain of UniProt Q13291 (Q13291 21-335): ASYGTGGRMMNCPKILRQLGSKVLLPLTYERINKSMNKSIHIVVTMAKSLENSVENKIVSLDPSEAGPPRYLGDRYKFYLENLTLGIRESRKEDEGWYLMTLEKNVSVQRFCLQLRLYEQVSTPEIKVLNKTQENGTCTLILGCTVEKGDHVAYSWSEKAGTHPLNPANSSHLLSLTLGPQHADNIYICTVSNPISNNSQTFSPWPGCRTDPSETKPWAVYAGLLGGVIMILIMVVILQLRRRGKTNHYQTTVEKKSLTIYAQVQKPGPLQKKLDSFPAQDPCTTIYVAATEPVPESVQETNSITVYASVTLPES

The term Kd denotes the constant that tells how readily two partners part at equilibrium. “measles virus hemagglutinin (H) (from UniProt P08362)”: the equilibrium dissociation constant (Kd) was 80 nM.
